How the values were obtained:
[1] = biological target: T1, polyhistidine-tagged human PD-1 (hPD1-His, 98AFK) (human, UniProt Q15116 25-167, limits assumed); assay: SPR solution affinity; reference Humanized 08A IgG4 S61N (98AIO)
T1 construct: also called human PD1-His; Human PD-1-His
Procedure: (§1) The titration series were incubated for 16-24 hours to reach equilibrium at room temperature. The unbound sites were measured using a BIAcore chip immobilized with antigen in a competition mode where SPR signal detected corresponded to unbound antibody.
(§2) The titration series following >16 hr. incubation were injected over the sensor chip immobilized with hPD1-His (above). Free, unbound antibodies concentrations were measured as proportional to RU after 120 seconds (for 500 pM mAb series) or 400 seconds (for 100 pM mAb series) of injection at 10 μL/min. After each cycle, surfaces were regenerated with a 30 second injection of 1:1 mixture of 3M MgCl₂ and pH 2.0 10 mM glycine at 30 μL/min.

[2] = biological target: T1, polyhistidine-tagged human PD-1 …; assay: SPR (Biacore T200), mAb captured on anti-Fc chip, hPD1-His as analyte
Procedure: (§3) A surface plasmon resonance (SPR)-based assay utilizing capture mode was used to determine the binding kinetics and affinities of anti-PD-1 antibodies against polyhistidine-tagged human PD-1 (hPD1-His, 98AFK). Following manufacture instructions, a series S sensor chip CM5 (GE Healthcare, BR100530) was activated using an amine-coupling kit (GE Healthcare, BR100050). Either human capture kit (anti-human Fc, 25 μg/mL, GE Healthcare, BR100839) or mouse capture kit (anti-mouse Fc, 30 μg/mL, GE Healthcare, BR100838) antibody diluted in the supplied pH 5.0, 10 mM sodium acetate buffer was immobilized onto the activated surface for 7 minutes. After immobilization, surfaces were deactivated with 1M ethanolamine/HCl (pH 8.5) for 7 minutes.
(§4) Binding kinetics were measured on a biacore T200 in HBS-EP+ (0.01 M HEPES pH 7.4, 0.15 M NaCl, 3 mM EDTA, 0.05% v/v Surfactant P20) running buffer at 25° C. Antibodies were captured either on mouse or human Fc capture surfaces at 10 μL/min flow rate. Antibodies were captured on flow cells 2, 3 and 4. Flow cell 1 was used as a reference with no antibody captured. A 6-point, 2-fold serial dilutions of the analyte 98AFK (hPD1-His), starting at 20 nM, were prepared in the running buffer (HBS-EP+). Two buffer blanks were included for double referencing. Titration series were injected for 3 minutes at 50 μl/min followed by 600 seconds of dissociation. After each cycle, surfaces were regenerated with a 30 second injection of 3M MgCl₂ at […] on the anti-human Fc chip or 180 seconds of 10 mM Glycine pH 1.7 at 10 μl/min on the anti-mouse Fc chip.
(§5) Sensorgram processing and data analysis were performed with Biacore T200 Evaluation Software Version 2.0.4 (GE Healthcare). […] Processed curves were globally fitted to a 1:1 binding model to determine the association rate constant, kₒₙ (M⁻¹s⁻¹, where “M” equals molar and “s” equals seconds) and the dissociation rate constant, koff (s⁻¹). These rate constants were used to calculate the equilibrium dissociation constant, KD (M)=koff/kₒₙ.

[3] = biological target: T1, polyhistidine-tagged human PD-1 …; assay: SPR (Biacore T200), mAb captured on anti-Fc chip; reference Mouse 08A
Procedure: as §3, §4, §5

[4] = biological target: T1, polyhistidine-tagged human PD-1 …; assay: SPR solution affinity (Biacore T200, competition mode, equilibrium titration)
Procedure: as §1, §2

[5] = biological target: T2, recombinant human or cyno PD-1 (immobilized onto CM5 chip, Example 1) (human or cyno ( which was …, UniProt Q15116 25-167, limits assumed)); assay: SPR (Biacore T200), PD-1 immobilized on CM5 chip, Fab as analyte
T2 construct: also called antigen
Procedure: Immobilization of recombinant human or cyno PD-1 onto CM5 chip: A CM5 sensor chip was activated in FC2 by 7-min. injection (10 μl/min.) of freshly prepared 1:1 50 mM NHS: 200 mM EDC. PD-1 at a concentration of 0.2 μg/ml in 10 mM sodium acetate buffer pH 5.0 was injected onto the activated chip at 5 μl/min. (HBS-EP running buffer: 10 mM HEPES, 150 mM NaCl, 3.4 mM EDTA, 0.005% surfactant P20, pH 7.4) for 120 seconds. The remaining active coupling sites were blocked with 7 min. injection of 1M ethanolamine at 10 μl/min.
Binding kinetics measurement: Various concentrations of the Fabs were injected with a flow rate of 30 μl/min for 180 seconds(s) during the association phase. The dissociation of bound antibody was monitored by flowing HBS-EP buffer over the chip surface for 600 seconds. At the end of each cycle, the sensor surfaces were regenerated by injecting regeneration buffer (10 mM glycine buffer with pH 1.7) for 180 seconds. After sensograms were corrected for signals from a reference flow, kinetics were calculated with BIACORE T 200 evaluation software ver.1.0 (Biacore, GE, USA).

T2 sequence (Q15116 25-167 limits assumed): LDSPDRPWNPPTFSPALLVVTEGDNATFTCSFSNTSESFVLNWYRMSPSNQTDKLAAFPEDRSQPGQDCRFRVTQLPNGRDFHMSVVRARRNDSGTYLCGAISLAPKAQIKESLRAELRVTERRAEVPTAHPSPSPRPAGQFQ
T1 sequence (Q15116 25-167 limits assumed): as above

Binder	KD (REF)/KD [1]	Kd [2] [nM]	KD (REF)/KD [3]	Kd [4] [nM]	Kd [5] [nM]
Humanized 08A IgG4 S61N (lot 98AIO) (antibody, IgG4 S228P / kappa; also called Humanized x [PD-1_H] mAb (08A/HuPD1A-11 S61N S228P corrected) IgG4 / Kappa) heavy: not shown light: DIVMTQTPLSLSVTPGQPASISCRASKSVSTSGFSYLHWYLQKPGQPPQLLIFLASNLESGVPDRFSGSGSGTDFTLKISRVEAEDVGVYYCQHSWELPLTFGQGTKLEIKRTVAAPSVFIFPPSDEQLKSGTASVVCLLNNFYPREAKVQWKVDNALQSGNSQESVTEQDSKDSTYSLSSTLTLSKADYEKHKVYACEVTHQGLSSPVTKSFNRGEC	1	0.054	4.4	0.033	
Fab 128 (Fab, V domains shown) VH: EVQLVQSGAEVKKPGASVKVSCKASGYTFTQYYYYWVRQAPGQGLEWIGGVNPSNGGTNFNEKFKSRVTLTVDTSISTAYMELSRLRSDDTSVYYCTRRDSNYDGGFDYWGQGTTVTVSS VL: DIVMTQTPLSLSVTPGQPASISCRASKSVSTSGFSYLHWYLQKPGQPPQLLIFLGRHRASGVPDRFSGSGSGTDFTLKISRVEAEDVGVYYCQHSWELPLTFGQGTKLEIKR					0.015
Fab 133 (Fab, V domains shown) VH: EVQLVQSGAEVKKPGASVKVSCKASGYTFTQYYYYWVRQAPGQGLEWIGGVNPSNGGTNFNEKFKSRVTLTVDTSISTAYMELSRLRSDDTSVYYCTRRDSNYDGGFDYWGQGTTVTVSS VL: DIVMTQTPLSLSVTPGQPASISCRASKSVSTSGFSYLHWYLQKPGQPPQLLIFLGFYRTSGVPDRFSGSGSGTDFTLKISRVEAEDVGVYYCSQMADLPLTFGQGTKLEIKR					0.031
Fab 138 (Fab, V domains shown) VH: EVQLVQSGAEVKKPGASVKVSCKASGYTFTQYYTYWVRQAPGQGLEWIGGIEPNRGGTNFNEKFKSRVTLTVDTSISTAYMELSRLRSDDTAVYYCTRRDSNYDGGFDYWGQGTTVTVSS VL: DIVMTQTPLSLSVTPGQPASISCRASKSVSTSGFSYLHWYLQKPGQPPQLLIFLASNLESGVPDRFSGSGSGTDFTLKISRVEAEDVGVYYCAQTFELPLTFGQGTKLEIKR					0.066
Fab 139 (Fab, V domains shown) VH: EVQLVQSGAEVKKPGASVKVSCKASGYTFTQYYYYWVRQAPGQGLEWIGGVNPSNGGTNFNEKFKSRVTLTVDTSISTAYMELSRLRSDDTSVYYCTRRDSNYDGGFDYWGQGTTVTVSS VL: DIVMTQTPLSLSVTPGQPASISCRASKSVSTSGFSYLHWYLQKPGQPPQLLIFLSKFRRSGVPDRFSGSGSGTDFTLKISRVEAEDVGVYYCQHSWELPLTFGQGTKLEIKR					0.014

Other lines, results leading:

KD (REF)/KD [1]	Kd [2] [nM]	KD (REF)/KD [3]	Kd [4] [nM]	Kd [5] [nM]	Binder
1	0.057	4.2	0.033		Humanized 08A IgG4 S61N G56A (antibody, V domains shown, IgG4 S228P / kappa; also called 51AQK; Humanized x [PD-1_H] mAb (08A/HuPD1A-11 S61N VH G56A / VL) IgG4 S228P / Kappa) VH: EVQLVQSGAEVKKPGASVKVSCKASGYTFTSYYLYWVRQAPGQGLEWIGGVNPSNAGTNFNEKFKSRVTLTVDTSISTAYMELSRLRSDDTAVYYCTRRDSNYDGGFDYWGQGTTVTVSS VL: DIVMTQTPLSLSVTPGQPASISCRASKSVSTSGFSYLHWYLQKPGQPPQLLIFLASNLESGVPDRFSGSGSGTDFTLKISRVEAEDVGVYYCQHSWELPLTFGQGTKLEIKR
1.7	0.079	3	0.019		Humanized 08A IgG4 Fab 098 G56A (antibody, V domains shown, IgG4 S228P / kappa; also called 90AVZ) VH: EVQLVQSGAEVKKPGASVKVSCKASGYTFTSYYLYWVRQAPGQGLEWIGGVNPSNAGTNFSEKFKSRVTLTVDTSISTAYMELSRLRSDDTAVYYCTRRLSHYDGGFDYWGQGTTVTVSS VL: DIVMTQTPLSLSVTPGQPASISCRASKSVSTSGFSYLHWYLQKPGQPPQLLIFLASNLESGVPDRFSGSGSGTDFTLKISRVEAEDVGVYYCQHSWELPLTFGQGTKLEIKR
0.6	0.1	2.4	0.056		Humanized 08A IgG4 G56A (antibody, V domains shown, IgG4 S228P / kappa; also called 89AVZ; Humanized x [PD-1_H] mAb (08A/HuPD1A-11 G56A) IgG4 S228P / Kappa) VH: EVQLVQSGAEVKKPGASVKVSCKASGYTFTSYYLYWVRQAPGQGLEWIGGVNPSNAGTNFSEKFKSRVTLTVDTSISTAYMELSRLRSDDTAVYYCTRRDSNYDGGFDYWGQGTTVTVSS VL: DIVMTQTPLSLSVTPGQPASISCRASKSVSTSGFSYLHWYLQKPGQPPQLLIFLASNLESGVPDRFSGSGSGTDFTLKISRVEAEDVGVYYCQHSWELPLTFGQGTKLEIKR
> 13	0.042	5.7	< 0.0025		Humanized 08A IgG4 Fab 100 S61N G56A (antibody, V domains shown, also called 25AVE) VH: EVQLVQSGAEVKKPGASVKVSCKASGYTFTSYYLYWVRQAPGQGLEWIGGVNPSNAGTNFNEKFKSRVTLTVDTSISTAYMELSRLRSDDTAVYYCTRRLSHYDGGFDYWGQGTTVTVSS VL: DIVMTQTPLSLSVTPGQPASISCRASKSVSTSGFSYLHWYLQKPGQPPQLLIFLSKYRSSGVPDRFSGSGSGTDFTLKISRVEAEDVGVYYCSQAYHLPLTFGQGTKLEIKR

Source: patent US20220251194A1 (Merck Sharp & Dohme, published 2022)
